{"source": "patent US20240294945", "assay_in_all_cases": "cell_activity", "key": {"[1]": {"test_system": "mouse ND5 silent DdCBE right (synthetic)", "settings": "pair, NIH3T3"}, "[2]": {"target": "mDdCBE ND4 TALE-E1347A DddAtox (synthetic) (UniProt P14727)", "settings": "monomeric full-length DddAtox"}, "[3]": {"target": "ND4 TALE-TadA* (synthetic) (UniProt P14727)", "settings": "A-to-G editing"}, "[4]": {"target": "mDdCBE ND4 TALE-GSVG DddAtox (synthetic) (UniProt P14727)", "settings": "monomeric full-length DddAtox"}, "[5]": {"test_system": "16S rDNA cp-DdCBE right (synthetic)", "settings": "pair, mRNA in lettuce protoplasts"}, "[6]": {"test_system": "ATP6 mt-DdCBE left (synthetic)"}, "[7]": {"test_system": "ATP6 (lettuce) mt-DdCBE right (synthetic)", "settings": "pair, lettuce protoplasts; first printed repeat NG vs G in site"}, "[8]": {"test_system": "16S rDNA cp-DdCBE left (synthetic)", "settings": "pair, mRNA in lettuce protoplasts"}}}
{"substance": "TTAAAATAAAGTTATTATT (double strand) [ND5 silent right TALE site]", "values": [{"measurement": "activity", "setting": "[1]", "value": "< 19", "unit": "%"}]}
{"substance": "ND4 TALE target", "values": [{"measurement": "activity", "setting": "[2]", "value": "< 7.2", "unit": "%"}, {"measurement": "activity", "setting": "[3]", "value": "< 0.6", "unit": "%"}, {"measurement": "activity", "setting": "[4]", "value": "< 31", "unit": "%"}]}
{"substance": "TGTGCGGGCCCCCGTCAA (double strand) [16S rDNA right TALE site]", "values": [{"measurement": "activity", "setting": "[5]", "value": "< 25", "unit": "%"}]}
{"substance": "TATTGGCATTACTATAG (double strand) [ATP6 left TALE site]", "values": [{"measurement": "activity", "setting": "[6]", "value": 23, "unit": "%"}]}
{"substance": "GAAAAAATGAAGCCCA (double strand) [ATP6 lettuce right TALE site]", "values": [{"measurement": "activity", "setting": "[7]", "value": 23, "unit": "%"}]}
{"substance": "GGGGAGTACGTTCGCAAG (double strand) [16S rDNA left TALE site]", "values": [{"measurement": "activity", "setting": "[8]", "value": "< 25", "unit": "%"}]}
